# Measurements reported in US20240166745A1 (Eli Lilly, published 2024).
# T1: Cynomolgus LAG-3-ECD (cynomolgus)
# T1 construct: as printed it starts with the N-terminal leader (MWEAQ...) and ends with a His tag; also called Cynomolgus LAG-3 ECD-His
# T1 chain: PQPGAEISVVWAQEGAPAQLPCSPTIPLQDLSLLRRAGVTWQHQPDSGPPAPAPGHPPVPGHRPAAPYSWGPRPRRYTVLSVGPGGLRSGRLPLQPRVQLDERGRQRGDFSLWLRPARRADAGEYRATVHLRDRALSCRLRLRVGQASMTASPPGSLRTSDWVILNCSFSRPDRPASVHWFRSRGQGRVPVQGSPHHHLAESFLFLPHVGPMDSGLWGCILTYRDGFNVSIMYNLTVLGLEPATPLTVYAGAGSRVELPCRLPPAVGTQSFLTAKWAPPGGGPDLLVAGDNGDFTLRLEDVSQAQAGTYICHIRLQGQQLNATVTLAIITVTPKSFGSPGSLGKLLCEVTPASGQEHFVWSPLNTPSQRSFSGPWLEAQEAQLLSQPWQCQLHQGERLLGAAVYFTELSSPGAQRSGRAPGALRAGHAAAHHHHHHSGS
# T2: Human LAG-3 ECD-His (human, UniProt P18627 23-449)
# T2 construct: Soluble analyte in SPR; the entry includes linker and His tag; also called human LAG-3-His
# T2 sequence: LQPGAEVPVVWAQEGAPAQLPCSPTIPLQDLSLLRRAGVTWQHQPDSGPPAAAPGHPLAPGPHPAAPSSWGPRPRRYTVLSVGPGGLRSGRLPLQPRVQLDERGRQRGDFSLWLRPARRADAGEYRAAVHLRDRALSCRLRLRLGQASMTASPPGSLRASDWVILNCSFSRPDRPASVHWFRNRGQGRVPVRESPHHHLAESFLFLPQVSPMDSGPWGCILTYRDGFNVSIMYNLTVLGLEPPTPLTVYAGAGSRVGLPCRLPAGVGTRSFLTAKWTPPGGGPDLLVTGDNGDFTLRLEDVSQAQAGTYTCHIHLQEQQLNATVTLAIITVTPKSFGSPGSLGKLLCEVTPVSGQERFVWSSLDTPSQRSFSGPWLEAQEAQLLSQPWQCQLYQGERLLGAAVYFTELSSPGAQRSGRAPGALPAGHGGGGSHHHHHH
# T3: cell membrane-expressed human LAG-3 (human, UniProt P18627 23-525)
# T3 construct: also called hLAG-3; CD223
# T3 sequence: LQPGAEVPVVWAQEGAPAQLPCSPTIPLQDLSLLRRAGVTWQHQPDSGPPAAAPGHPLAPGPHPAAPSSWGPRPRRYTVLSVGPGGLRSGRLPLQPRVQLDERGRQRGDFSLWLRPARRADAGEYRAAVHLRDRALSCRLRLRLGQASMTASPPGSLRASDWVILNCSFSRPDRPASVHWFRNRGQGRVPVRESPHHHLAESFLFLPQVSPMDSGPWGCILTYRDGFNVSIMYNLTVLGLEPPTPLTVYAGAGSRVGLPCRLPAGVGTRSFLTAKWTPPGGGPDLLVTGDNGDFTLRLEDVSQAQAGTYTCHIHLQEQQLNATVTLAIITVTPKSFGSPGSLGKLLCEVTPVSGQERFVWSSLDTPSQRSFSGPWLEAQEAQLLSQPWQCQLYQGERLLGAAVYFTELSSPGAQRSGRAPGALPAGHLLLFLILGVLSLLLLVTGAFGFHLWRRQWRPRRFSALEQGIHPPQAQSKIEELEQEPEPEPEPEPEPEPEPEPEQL
# B1: Antibody E (antibody, V domains shown)
# VH: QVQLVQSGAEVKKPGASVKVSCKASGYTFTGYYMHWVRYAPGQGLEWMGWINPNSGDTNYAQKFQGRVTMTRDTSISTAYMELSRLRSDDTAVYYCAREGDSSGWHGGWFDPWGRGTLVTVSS
# VL: DIVMTQTPLSLPVTPGEPASISCRSSQSLLDSAEGSTYLDWFLRKPGDSPQLLIYTLSYRASGVPDRFSGSGSGTDFTLKISRVEAEDVGVYYCMQRVEFPYTFGQGTKVEIKR
# notes: Monospecific LAG-3 antibody; also called human LAG-3 Antibody E
# What was measured:
# [1] = molecular target: T4, cell surface cynomolgus monkey LAG-3 (cynomolgus); assay: flow cytometry, labeled antibody on anti-CD3 activated cynomolgus PBMC, CD8 T cells, percent of cells bound (mean +/- SEM, n=3)
# T4 construct: whole, on cells
# Method: (§1) Cells were incubated with 10-12 point, 3-fold serial dilutions of the respective labeled antibody (Invitrogen #S20026, Invitrogen #C20029), starting at 30 ug/mL, in PBS+2% FCS for 30 minutes at 4° C. and containing the following: CD4 eBioscience #12-0047-42 or Biolegend #344634; CD8 eBioscience #25-0088-42; CD3 eBioscience 56-0038-82 for human cells and BD #557917 for cyno cells; CD33 eBioscience 45-0338-42 for human cells; Live/Dead eBioscience #65-0865-18. After washing thoroughly, cells were processed on a BD Fortessa or Fortessa X20 cytometer, and data were analyzed with Flowjo software (BD Biosciences). Percent of cells bound by the respective antibody is quantified and graphed with Prism (Graphpad, San Diego, CA).
# Cynomolgus LAG-3-ECD = molecular target: T1, Cynomolgus LAG-3-ECD; assay: SPR (Biacore T200), antibody captured on PrismA chip, ECD as analyte, 37° C.
# Method: (§2) A Biacore® T200 (Cytiva, Marlborough, MA) was used to measure the binding kinetics and affinities of the LAG-3 antibody to the LAG-3 soluble extracellular domain (ECD) and the bispecific antibody to soluble LAG-3-ECD and PD-1-ECD (human: Sino Biologicals, Cat #10377-H08H; cynomolgus: Sino Biologicals, Cat #90311-C08H) by surface plasmon resonance. Samples were diluted in HBS-EP+ (10 mM Hepes, 150 mM NaCl, 3 mM EDTA, 0.05% Tween-20, pH 7.6) (Teknova Cat #H8022) with 5 g/L of BSA (Jackson ImmunoResearch Cat #001-000-161) running buffer. PrismA Series S Sensor chip (Cat #29650263) is purchased from Cytiva.
# (§3) Binding was evaluated using multi-cycle kinetics by an antibody capture method. Each cycle was performed at either 37° C. or 25° C. at a flow rate of 10 μL/min for antibody capture to the PrismA chip and 100 μL/min for analyte association (with 120 sec contact time) and dissociation (900 sec). Each cycle consisted of the following steps: injection of bispecific antibody at 1 μg/mL in HBS-EP+ targeting Rmax values of 125 RU (LAG-3 arm), 294 RU (PD-1 arm) and 63 RU (LAG-3 antibody) on flow cell, injection of analyte in HBS-EP+(concentration range of 62.5 nM to 0.25 nM by two-fold serial dilution for both human PD-1-ECD-His (SEQ ID NO: 40) and human LAG-3-His (SEQ ID NO: 42) followed by 900-second dissociation phase, and regeneration using 10 μL of 10 mM glycine hydrochloride, pH 1.5 over a 60-second contact time utilizing a 10 μL/min flow rate. All analyte concentrations were determined utilizing monomeric molecular weight (MW) values. Association rates (kₒₙ) and dissociation rates (koff) for LAG-3-ECD and PD-1-ECD were evaluated using double referencing by flow-cell one reference subtraction in addition to 0 nM blank subtraction and fit to “1:1 (Langmuir) binding” model in the BIAevaluation software version 4.1. The dissociation constant (KD) was calculated from the binding kinetics according to the relationship KD=Koff/Kₒₙ. Stoichiometry=[RUₘₐₓ/RUcaptured]/[MWanalyte/MWantibody] where MWAntibodyA is 150 kDa. Values are reported as mean±standard deviation.
# Human LAG-3 ECD-His = molecular target: T2, Human LAG-3 ECD-His; assay: as above
# Method: as §2, §3
# [2] = molecular target: T4, cell surface cynomolgus monkey LAG-3; assay: flow cytometry, labeled antibody on anti-CD3 activated cynomolgus PBMC, CD4 T cells, percent of cells bound (mean +/- SEM, n=3)
# Method: as §1
# [3] = molecular target: T3, cell membrane-expressed human LAG-3; assay: flow cytometry, labeled antibody on anti-CD3 activated human PBMC, CD4 T cells, percent of cells bound (mean +/- SEM, n=3)
# Method: as §1
# [4] = molecular target: T3, cell membrane-expressed human LAG-3; assay: flow cytometry, labeled antibody on anti-CD3 activated human PBMC, CD8 T cells, percent of cells bound (mean +/- SEM, n=3)
# Method: as §1
binder,measurement,setting,value
B1,EC50,[1],6.5 ng/mL
same,Kd,Cynomolgus LAG-3-ECD,0.038 nM
same,koff,Cynomolgus LAG-3-ECD,0.0042 s⁻¹
same,kon,Cynomolgus LAG-3-ECD,1.1e+08 M⁻¹ s⁻¹
same,Kd,Human LAG-3 ECD-His,1 nM
same,koff,Human LAG-3 ECD-His,0.16 s⁻¹
same,kon,Human LAG-3 ECD-His,1.5e+08 M⁻¹ s⁻¹
same,EC50,[2],0.0105 µg/mL
same,EC50,[3],8.7 ng/mL
same,EC50,[4],3.4 ng/mL
